Results: PMC12205649

Legend:
[1] = molecular target: E. coli CsgC (E. coli) (UniProt P52107)
[2] = molecular target: E. coli CsgA fibrils (sonicated amyloid fibres of WT CsgA) (E. coli) (UniProt P28307); test: SPR; BIAcore 3000, CM5 chip; sonicated CsgA fibrils amine-coupled at 1300 RU; gel-filtered CsgC injected 5 min at 4 to 0.25 μM (two-fold dilutions); phosphate buffer pH 7.5, 0.05% Tween, 25 °C; fitted with Scrubber2
[3] = molecular target: E. coli CsgA, freshly purified monomer (E. coli) (UniProt P28307); test: native MS; ion mobility-mass spectrometry (nESI, Synapt G2); CsgA and CsgC each diluted to 20 μM and mixed 1:1 in 20 mM ammonium acetate pH 7.4, incubated at 37 °C, time points 0, 3, 6 and 23 h
[4] = molecular target: T1, E. coli CsgC (E. coli), P52107; test: as above; details: remark: other sources report otherwise
T1 chain: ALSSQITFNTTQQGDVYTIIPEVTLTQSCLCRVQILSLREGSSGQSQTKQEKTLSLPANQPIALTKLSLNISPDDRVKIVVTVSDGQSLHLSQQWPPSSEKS

## E. coli CsgA, freshly purified monomer (from UniProt P28307 21-151) (natural protein)
[1]
  ThT binding assay: increase in lag time of CsgA eluted from the CsgC-linked column compared with CsgA eluted from the Tris-quenched column: 51 min
  ThT binding assay: increase in time to half maximum ThT fluorescence of CsgA eluted from the CsgC-linked column compared with CsgA eluted from the Tris-quenched column: 52 min

## E. coli CsgC (from UniProt P52107 9-110) (natural protein)
[2]
  Kd: 360 nM
  koff: 0.00118 s⁻¹
[3]
  stoichiometry N: 1

B1: E. coli CsgC, P52107 9-110 (natural protein)
chain: T1 chain
[4]
  stoichiometry N: 2
